Measured values taken from the supplement of paper PMC11865577.

Assays:
Assay in all cases: pull-down binding Z-score (relative to library population); higher = stronger binding
[1] = tested on: G-clamp-N3 (biotin conjugate); conditions: RNA library: Library-1 (pre-miRNA loops + repeats)
Summary of the method: (§1)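 Cy5- or Cy3-end-labelled RNA library (1 μg) was heat-folded in phosphate/NaCl/KCl buffer and incubated 60 min at 25 °C with streptavidin beads carrying 100 pmol biotin-conjugated small molecule. After three washes, bound RNA was eluted in hot SDS and hybridised 20 h at 55.5 °C to a DNA barcode microarray. Binding was scored by subtracting a beads-only control, averaging barcoded replicate probes after dropping highest and lowest, and converting to a Z-score against library mean and standard deviation.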

[2] = tested on: TO-3-N3 (biotin conjugate); conditions: RNA library: Library-2
Summary of the method: as §1

[3] = tested on: TO-3-N3-2 (biotin conjugate); conditions: RNA library: Library-2
Summary of the method: as §1

TO-N3 (biotin conjugate) = conditions: RNA library: Library-2
Summary of the method: as §1

[4] = tested on: TO-N3-2 (biotin conjugate); conditions: RNA library: Library-2
Summary of the method: as §1

Sequence | pull-down binding Z-score [1] | pull-down binding Z-score [2] | pull-down binding Z-score [3] | pull-down binding Z-score (TO-N3 (biotin conjugate)) | pull-down binding Z-score [4]
CAAGAGGUGUGAGCCACACACACGCCUGGCCUCCUG [hsa-mir-5699] | 1.28 | 0.771 | 0.0475 | 0.813 | 0.687
CAAGCACACAGGGCCUGGGACUAGCAUG [hsa-mir-4728] | -0.152 | 0.506 | 0.256 | 0.993 | 1.52
CAAGGAAGAGUCACAGUCUCUUCCUUG [hsa-mir-659] | -0.00418 | -0.474 | -0.285 | -0.699 | -0.539
CAAGGGCUCUACUGUCCUUUCAGGAGAGCCCUUG [hsa-mir-4776-2] | 1.19 | -0.245 | -1.02 | -0.597 | -1.37
CAAGGGCUCUCCUGAAAGGACAGUAGAGCCCUUG [hsa-mir-4776-1] | 0.88 | 1.31 | -0.0552 | 1.18 | -0.109
CAAGUAAAAGGAAUUUUCAUUUUCCAGCCCCUAAUUG [hsa-mir-6739] | -1.23 | -0.655 | -0.399 | -0.811 | -0.628
CAAGUCCGUCUUCCUGAGAGGUUUG [hsa-mir-133b] | -0.401 | -0.412 | -0.284 | -0.0806 | 0.836
CAAGUUAUCACUGAGCGACUUC [hsa-mir-4664] | -1.2 | -0.47 | -0.235 | -0.349 | -0.296
CAAUAGUAAAAAGACAACCUGUUG [hsa-mir-3133] | 0.427 | -0.559 | 0.0706 | -0.651 | -0.486
CAAUCACAUGUAAUUAGGUGUGAUUG [hsa-mir-510] | 1.4 | -0.789 | -0.773 | -1.09 | -1.29
CAAUCAUGUAUAACUAAAUUUGAUUG [hsa-mir-514a-2_514a-3] | 0.276 | -1.04 | -0.513 | -1.55 | -1.74
CAAUCAUGUAUAAUUAAAUUUGAUUG [hsa-mir-514a-1] | 0.528 | -0.112 | 0.0139 | -0.511 | -1.18
CAAUCAUGUGUAAUUAGAUAUGAUUG [hsa-mir-514b] | 0.559 | -1.06 | -0.732 | -1.38 | -1.33
CAAUGAAGACAUGAAGACCCAAUGUCUUCAUUG [hsa-mir-4529] | -0.114 | -0.88 | -0.347 | -1.17 | -1.1
CAAUUUGAGACCAAU [hsa-mir-1285-2] | -1.39 | -0.0235 | 0.444 | -0.0272 | 0.218
CACAAAUAUGGCUCUUUGUG [hsa-mir-4474] | -0.738 | -0.637 | -0.469 | -0.809 | -0.657
CACAAGACUAGGCUUCCCUGUG [hsa-mir-3152] | -0.785 | 0.212 | 0.0303 | 0.13 | -0.0548
CACAAUAUUUAGGACAACAAUAUU [hsa-mir-1302-6] | -0.807 | -0.282 | 0.226 | -0.362 | -0.518
CACACACAAUCACCAUGUG [hsa-mir-3118-1] | -0.57 | -0.577 | -0.386 | -0.942 | -1.07
CACACACAAUCACCGUGUG [hsa-mir-3118-2_3118-3_3118-4] | 0.27 | 0.0723 | -0.0846 | -0.218 | -1.24
CACACAUACAUAUAUAUAUGUUUG [hsa-mir-3149] | -0.604 | 0.618 | 0.18 | 0.379 | -0.501
CACACGCUUUAUUUGUGCCGUUUG [hsa-mir-758] | -0.691 | -0.0281 | -0.318 | -0.164 | -0.655
CACACUGGUGAGGUAACAGGAUCCGGUG [hsa-mir-182] | 0.926 | 0.159 | 0.0141 | 0.38 | 0.691
CACAGAGUAAGCAUCAAUAGCAUUGGCAAGUUGAACUGAGCUGUC [hsa-mir-6895] | -0.438 | -0.393 | -0.0293 | 0.466 | 1.37
CACAGUUCUGG [hsa-mir-761] | 0.647 | 0.292 | -0.473 | 0.102 | 0.18

Sequence | pull-down binding Z-score [1] | pull-down binding Z-score [2] | pull-down binding Z-score [3] | pull-down binding Z-score (TO-N3 (biotin conjugate)) | pull-down binding Z-score [4]
CACCAAAGGGUUAAGGGUUUGCUCUGGAG [hsa-mir-4653] | -0.264 | -0.018 | 0.0957 | 0.124 | 0.14
CACCAGCCAGGCAUUGCUCAGCCCGUUUCCCUCUGGGGGAGCAAGGAGUGGUGCUGGGUUUGUC [hsa-mir-593] | -0.156 | 0.762 | -0.0489 | 1.15 | 1.24
CACCUCCCGGCCCGGAGCUG [hsa-mir-4734] | 0.0744 | -0.243 | -0.473 | -0.0704 | 0.527
CACGAGAUACCAGUGUGCACUUGUG [hsa-mir-542] | -0.858 | -0.51 | -0.425 | -0.441 | 0.103
CACGAGAUUGGGUUGUGCAGAGGCUGACACUUG [hsa-mir-5004] | 0.93 | -0.363 | 0.0781 | -0.0226 | 0.63
CACGCAUUUGCUUUACUUGCAAUGAUUAUA [hsa-mir-300] | -0.374 | 0.485 | 0.215 | 0.583 | 0.472
CACGCCGCGCCGCCGGGUCCCUCCUCCCCGGAGAGGCUG [hsa-mir-4674] | 0.455 | 0.257 | -0.048 | 0.606 | 1.56
CACUAAUGUGAUUAAUGUUGUUGUG [hsa-mir-3657] | -1.39 | -0.405 | -0.0793 | -0.611 | -0.402
CACUACAAGAAGAAUGUAGUUGUG [hsa-mir-19a] | 1.3 | -0.108 | 0.234 | -0.154 | 0.739
CACUCAGGCAGUGCCAUGAGC [hsa-mir-6811] | -0.12 | 0.249 | -0.366 | 0.408 | 0.422
CACUCAGUAAAUAUUUGUUGAGUG [hsa-mir-1271] | 0.231 | -0.368 | -0.186 | -0.674 | -1.18
CACUCCCGGGAUCCCCAGGGAC [hsa-mir-3176] | -1.23 | 0.149 | -0.144 | 0.25 | 0.68
CACUCCCGUGCUUGUCCGAGGAGGGAGG [hsa-mir-149] | 1.29 | 1.78 | 0.731 | 2.63 | 2.78
CACUCUCCCUAAUGGGGCUGAAGACAGCUCAGGGGCAGGGUG [hsa-mir-4472-1] | 1.88 | -0.357 | -0.583 | -0.273 | 0.191
CACUGAUUCAGUAAAAUACUCAGUG [hsa-mir-891a] | -0.252 | -0.707 | -0.845 | -1.09 | -1.35
CACUGCAGUUACCCUCCCCUCGGCGUUACUGAGCACUG [hsa-mir-637] | -0.893 | 0.22 | 0.224 | 0.603 | 0.948
CACUUUCUGCUCUCUGGUGAAAGUG [hsa-mir-371a] | 0.951 | 0.0211 | -0.0736 | -0.0106 | -0.309
CAGACAAUAUAGCUGAGUUUGUCUG [hsa-mir-215] | -0.604 | -0.801 | -0.547 | -1.24 | -1.03
CAGACCAUGCCACAUCCGUCUG [hsa-mir-7152] | -0.704 | -0.515 | -0.604 | -0.651 | -0.334
CAGACGGCUUUCUCUCCGAAUGUCUG [hsa-mir-2276] | -0.958 | -0.908 | -0.376 | -1.12 | -0.639
CAGACUCUG [hsa-mir-4326] | 1.33 | 0.067 | -0.381 | -0.0561 | -0.0772
CAGACUGUCUUCCCAAAUAGCCUG [hsa-mir-4772] | -1.42 | 0.00537 | -0.219 | -0.0312 | -0.223
CAGAGAUGAAAUUGGGACUCCUCU [hsa-mir-7157] | -0.282 | 0.189 | 0.343 | 0.499 | 0.835
CAGAGCUGCAGCUGCUCCACCCUG [hsa-mir-6730] | -0.915 | 0.563 | 0.319 | 1.12 | 1.42
CAGAGGCAUCGGGUCAG [hsa-mir-4746] | 1.75 | 0.807 | 0.516 | 1.19 | 1.35

Sequence | pull-down binding Z-score [1] | pull-down binding Z-score [2] | pull-down binding Z-score [3] | pull-down binding Z-score (TO-N3 (biotin conjugate)) | pull-down binding Z-score [4]
CAGAGGCUGGCUUUCCAAAACUCUG [hsa-mir-1913] | -0.379 | 0.996 | 0.266 | 0.884 | 0.235
CAGAGGGAGGCCAAGAAGACCUCUG [hsa-mir-4793] | 2.73 | -0.656 | -0.445 | -0.402 | 0.354
CAGAGGGGCUGGCAGUACUGCUCUG [hsa-mir-4649] | 2.75 | 0.999 | 0.258 | 1.08 | 1.22
CAGAGGUCCCACAGCAGGGCUGGAAAGCACACCUGUGGGACUUCUG [hsa-mir-3922] | 0.395 | 0.224 | 0.0101 | 0.231 | -0.164
CAGAGUGGGCUCACCUCUCGCCCACACUG [hsa-mir-6760] | -0.917 | -0.556 | -0.336 | -0.637 | -0.38
CAGAGUGUGCAUGGCAGGCU [hsa-mir-7156] | -0.349 | 0.383 | 0.342 | 0.869 | 0.86
CAGAGUUCCCUUCUUGUGAGCUCAG [hsa-mir-6733] | -0.936 | -0.518 | -0.714 | -0.415 | 0.42
CAGAUACUUUUUAAAAUUUGUUUGAGUUGAGGCAGAUUAAAUAUCUG [hsa-mir-4742] | 0.164 | -0.76 | 0.104 | -0.82 | -0.673
CAGCACUGAGCAGGCAGUGUUGU [hsa-mir-4288] | -0.48 | -0.241 | -0.325 | -0.149 | 0.42
CAGCAGCAGCAGCAGCAGCAGCAGCAGCAGCAGCAGCAGCAGCAGCAG [r(CAG)16] | 1.2 | 0.922 | -0.0193 | 1.6 | 1.29
CAGCCAUGACCUGACCUUCUGUCUG [hsa-mir-4677] | -0.499 | -0.163 | -0.165 | -0.0686 | 0.513
CAGCCCCGUGUGUUGAGGAAGGAAGG [hsa-mir-940] | 1.54 | 0.485 | 0.769 | 1.24 | 1.95
CAGCCCGUGGUGGGG [hsa-mir-3619] | 0.788 | 0.721 | 0.115 | 0.752 | 0.751
CAGCCCUGCACUGAAC [hsa-mir-614] | -1.84 | 0.285 | 0.00113 | 0.941 | 1.39
CAGCCUGGGGCAUCGGUUG [hsa-mir-5572] | -0.0198 | 2.41 | 1.31 | 2.01 | 1.02
CAGCCUGUUGUCAAGGCUG [hsa-mir-3130-1] | -0.13 | 0.535 | 0.129 | 0.712 | -0.199
CAGCCUUGACAACAGGCUG [hsa-mir-3130-2] | -0.151 | 0.503 | -0.184 | 0.391 | -0.289
CAGCUACACAAGCUG [hsa-mir-631] | 1.64 | -0.0598 | -0.33 | -0.53 | -0.859
CAGCUGUUGUCUCCAGAGCAUUCCAGCUG [hsa-mir-191] | -0.433 | 0.371 | -0.002 | 0.648 | 1.46
CAGCUUGCUCUGCUUU [hsa-mir-4303] | 0.072 | -0.387 | 0.0132 | -0.189 | 0.0746
CAGGAGUGGACACCUG [hsa-mir-1246] | -0.505 | -0.0928 | -0.238 | -0.198 | -0.454
CAGGAUUAGUGCUUAUGCUAAGAUGUCUUCACUG [hsa-mir-6773] | 0.887 | -0.824 | -0.269 | -0.75 | -0.301
CAGGCAGUGGAGUUACUU [hsa-mir-600] | -1.07 | 0.683 | 0.557 | 1.01 | 1
CAGGCCAGGGGCAGACAGUGGACAGAGAACAGUGCCCAAGACCACUG [hsa-mir-378e] | 1.13 | 0.426 | 0.736 | 1.27 | 1.73
